Results taken from the domain aggregation screens of Martell et al. (2025).

Experiment: soluble fraction after stress (log2 fold change); higher = more stays soluble; pooled small domains, quantitative proteomics
Conditions: stress: 75 degC
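Further: 20 min heating vs room temperature control held 20 min.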

Row | Sequence | soluble fraction (log2)
1 | HMYHIYPVADNDTPKLSADRLEYSLSNALLTNKLLNIDEIKKIYNDVILDKDEDGTLELSFKS | 0.127
2 | HMYIDANTALLAKRIQAKNGFLPLSDKSTAEEIYAEFGISKKAFKKALGALYKERLVRIGDEGVVWV | -2.46
3 | HMYINVQNARTIASFRSSLWRMHRDFTNQGYITADGLKTFLEMGKLYEDAGGNDIYHSKLLPEITALEIKY | -2.84
4 | HMYKDVVVPNTVGDSEEKAYQTLSALGLVVNITYDEDASKSDRVVTSQNPTNKTIKEGESVNIVVNKQP | 0.573
5 | HMYKIDFAEGDRVIIKGGAFSGLRATVVSLHPEKGMAKIKVYMFGDRETLVDIEVSQLEKDK | -0.785
6 | HMYKTKVDIAYDMLMERITEGVYKPGEKLVITHISKELGISDIPVREAIRRLESEGYVKILPNQGAIVYD | -0.671
7 | HMYLGRKATLLSSISGEKMGNAEVLADGNLMSIYVKSLTGEPLSYGSTVLIIKHSEDQNFYLVQN | -3.54
8 | HMYLQKGISNGKVYLSIVHGYRDPVTKKVRRKTIRSLGYLEDLEKQYADPIKHFEAVVAKMNEEEALE | -1.88
9 | HMYLSNPTYRGDSLVDALTQIGVDASFASRRDLARKNGIENYTGSAKQNLELLQLLREGRLR | 0.402
10 | HMYLYADIYKKLEEKIKNMEVGEKLPSERAMVQEYGVSRNVLREALVLLSERGLIEIRPGKGSYVTNQQ | -1.17
11 | HMYNKKAYVNTNSDFLNVRSEASTESSVVDKLARGTEVNIVGNIQNGFYPIVLNEKNAWVSSDWISFEKPT | 0.053
12 | HMYNNDEIEKIQTMYNAIYQLNDIEKALIMLFLEDKSYKEIAEIMGISEGNARIKMMRTKDKLKNLISKN | -0.527
13 | HMYNNGYVNSDRVNFRKGASTNSDIYKVLDKNTSVTILDYEGDWSKVKINDTVGYVYTKYITAG | -0.368
14 | HMYNTDAMGVRIGELRRAKGLTQEAFAKTLGISAQAVSKWETGLGFPDISLLPMIAETLGTKIETLFGAE | -0.299
15 | HMYPATGTVVTAGGHLNMRSEPDRSGAILARIPNGTALTLTGKNGDWYAATYAGRSGYVSAQYISLS | -0.421
16 | HMYPDNSGDIQQLAQNIFRQENVSVDRDGLALISSRLGSDHAATRSEIEKLALLAGPGGTLTFETISEVLG | -0.145
17 | HMYPEDMMSLMRRALRLINHLESNRKDRHNSRQLELTESKIRRLARYYKGRGLIETEWAYKRDQLRLLV | -0.532
18 | HMYPIYDYISNMYLGKHLNAGMSLEEARGIMDEMLEKLLFDVPEEYHIDRDHFYEYLKKYYTERFSA | -1.73
19 | HMYPQLIGFKVIDEDKGEVGVVKEVSESMHQILLTVMKGKKEILIPLAEEFITKVNRHKKELFMVLPDG | -0.192

Row | Sequence | soluble fraction (log2)
20 | HMYRLDVEISDEIKRDIDEETLSEIKGIIAEDPRPSYQNDETRIYRFTFAGREISFRVKDRTATVTEIL | -0.921
21 | HMYRPLYQQVYDFLVKQIAAGEWGPGESLPSEQALAGRLNVSQGTVRKALDALAADSLIDRRQGKGTYVAE | -0.236
22 | HMYRPQQEFTMRDLFQNNLNGSESASVRRDALGAELGIGYGNAKRFLERLNHYGVSREEFTAALEKLESE | -0.522
23 | HMYRSGGYTGAGKDDEEAGVVHRNEFVNTADAVRNPHVKRFLDVFNVAQKDGTIRMLNTSQILERARLDA | 0.115
24 | HMYRYGETPMVVVPDLIGRTVSDIYEEMNADFRLEKFGNGNTVISQAPKPGERVEQGSVIRVYLSGQDQ | 0.0556
25 | HMYSDERLQTFMELLPFFVEELSNKHVTRYNVWQNYREAYPNGYGRSQFFFHLGQNLEAKKK | -1.34
26 | HMYSIKEFSFEVTTPGQRLDLFLSEELIGQTRSSIQNLILKKYVTVNGQVSKASYKVKTGEFISVKIPV | -3.1
27 | HMYSINKTEFGERIKSAREELKMTQTQLAQLLKTSQTTVAKYEHGEQIPRADVLATISKATGKSTDWLLFG | -0.268
28 | HMYSKQRELIMEAVFKNRVHPTAEYVYKLLKKDHPELSLGTVYRNLNYWAENNMLKKINVPGGSDRFDGT | 0.0438
29 | HMYSLGPKERSIVSFIANRPGSRSGQIAKSLQIPLPTIKRILNGLVENKVIARHGIGAGTNYVVEDQA | -0.711
30 | HMYSMSAPMPGVILEIKVAPGDQVNKGDVVMVLEAMKMKNDLHAARTGTVESIDINSGEQVKYGQVLLRFV | -0.225
31 | HMYSQIGYGSSGSDVRKLQEILNGKGYNLSVDGQFGAKTKSAVRDYQSKNGLSVDGIVGVNTWGKLT | -0.0992
32 | HMYSYNKEEVGKRIKSIRQQKGLTQESFGELFGASKGNVATWEKGISLPNASRLREIADLVSITVEELLYG | -0.735
33 | HMYTLGEESDGTVRLLELYDIIKNKNEKIFVVDELDRSLHPNLTFNFVKKYLSIENKSQLIVSTH | 0.0677
34 | HMYVKKSSFVKKSLNNYEFKITDNTNDLLIFYKGMLPDLFREEQGIVVEGLIDKNNNIVASKV | 0.0603
35 | HMYVSGVPAITSIERVSTPGRRVYAGYTTVPKVIGGMGVSILTTSRGVMTDAEARRQKVGGELLAKV | 0.234
36 | HMYVTGSAIRRLREKRKLTQAQLAAALSVSDKTVSKWETARGLPDITLLEPLARALQVSVPELLSGEEV | -1.58
37 | HMYVVLYPGMARDEAVQVMNELQSRGIDYYEKNGNIYVPKTDENSLRMELANLGYPKTTNNYD | -0.0096
38 | HMYYHQIIGLDVVDENGNTLGKIKEILSPGANDVWVVKRKQKNDLLLPVIDDVIKDVDLAAGKVHVELLEG | -0.269
